In patent US20250197511A1 (HORIZON THERAPEUTICS IRELAND DAC, published 2025):

Biological target: IGF-1R on NCI-H322 cells (UniProt P08069 31-1367, limits assumed)
Experiment: cell-based or functional assay

Sequence of IGF-1R on NCI-H322 cells (P08069 31-1367 limits assumed): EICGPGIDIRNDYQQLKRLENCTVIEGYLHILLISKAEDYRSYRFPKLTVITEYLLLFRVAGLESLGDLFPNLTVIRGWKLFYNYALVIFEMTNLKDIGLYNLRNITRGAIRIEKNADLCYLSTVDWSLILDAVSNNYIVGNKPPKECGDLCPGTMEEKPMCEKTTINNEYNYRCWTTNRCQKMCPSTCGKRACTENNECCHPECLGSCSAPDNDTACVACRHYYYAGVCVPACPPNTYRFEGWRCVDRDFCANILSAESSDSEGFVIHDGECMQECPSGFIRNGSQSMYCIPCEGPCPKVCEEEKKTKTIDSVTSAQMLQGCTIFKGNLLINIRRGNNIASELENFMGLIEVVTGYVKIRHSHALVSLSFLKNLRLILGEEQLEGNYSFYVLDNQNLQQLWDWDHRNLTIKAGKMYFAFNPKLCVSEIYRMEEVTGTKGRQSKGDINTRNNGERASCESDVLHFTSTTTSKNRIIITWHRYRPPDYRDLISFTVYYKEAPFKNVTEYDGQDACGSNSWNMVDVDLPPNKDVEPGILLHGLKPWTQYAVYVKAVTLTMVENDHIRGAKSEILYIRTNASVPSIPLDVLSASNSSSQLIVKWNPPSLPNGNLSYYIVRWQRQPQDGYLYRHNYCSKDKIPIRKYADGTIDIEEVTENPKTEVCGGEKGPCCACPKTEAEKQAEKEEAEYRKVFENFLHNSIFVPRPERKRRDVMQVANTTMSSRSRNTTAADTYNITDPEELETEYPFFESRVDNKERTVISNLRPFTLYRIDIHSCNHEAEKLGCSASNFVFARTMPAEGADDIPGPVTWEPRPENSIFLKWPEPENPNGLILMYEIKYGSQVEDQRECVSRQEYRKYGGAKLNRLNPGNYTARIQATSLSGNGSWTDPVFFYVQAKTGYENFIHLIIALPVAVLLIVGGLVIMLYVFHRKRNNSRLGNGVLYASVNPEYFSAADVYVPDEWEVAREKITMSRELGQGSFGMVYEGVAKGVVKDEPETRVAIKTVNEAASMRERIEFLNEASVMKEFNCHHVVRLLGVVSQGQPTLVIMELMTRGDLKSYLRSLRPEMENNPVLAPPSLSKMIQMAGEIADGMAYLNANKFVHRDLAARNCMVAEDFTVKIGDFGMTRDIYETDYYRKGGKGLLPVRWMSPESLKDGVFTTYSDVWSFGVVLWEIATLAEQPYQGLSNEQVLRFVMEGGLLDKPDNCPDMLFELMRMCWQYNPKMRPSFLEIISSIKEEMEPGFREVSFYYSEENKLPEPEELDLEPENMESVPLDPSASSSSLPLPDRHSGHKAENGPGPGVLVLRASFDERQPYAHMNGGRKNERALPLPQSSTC

B1: Teprotumumab reference antibody (antibody, V domains shown)
VH: QVELVESGGGVVQPGRSQRLSCAASGFTFSSYGMHWVRQAPGKGLEWVAIIWFDGSSTYYADSVRGRFTISRDNSKNTLYLQMNSLRAEDTAVYFCARELGRRYFDLWGRGTLVSVSS
VL: EIVLTQSPATLSLSPGERATLSCRASQSVSSYLAWYQQKPGQAPRLLIYDASKRATGIPARFSGSGSGTDFTLTISSLEPEDFAVYYCQQRSKWPPWTFGQGTKVESK
In the case of B1, the “IC50 of inhibition of IGF-1R phosphorylation (antibody dilution started at 100 ug/mL, diluted 1/8)” value is reported as 0.397 µg/mL.

B2: D03-YTE (clone D03 with the YTE mutation M252Y/S254T/T256E, EU numbering) (antibody, human IgG1, kappa, V domains shown)
VH: QVELVESGGGVVQPGRSQRLSCAASGFTFSSHGMHWVRQAPGKGLEWVAYIWFDGSSTYYADSVRGRFTISRDNSKNTLYLQMNSLRAEDTAVYFCARELGRRYFDLWGRGTLVSVSS
VL: EIVLTQSPATLSLSPGERATLSCRASQSVSSALAWYQQKPGQAPRLLIYDASKRATGIPARFSGSGSGTDFTLTISSLEPEDFAVYYCQQRSKYPPWTFGQGTKVESKR
For B2, the “IC50 of inhibition of IGF-1R phosphorylation (antibody dilution started at 100 ug/mL, diluted 1/8)” value was 0.0205 µg/mL.
